Measurements taken from article PMC5805371.

Target: MYC-tagged TNPO1 (UniProt Q92973)
Assay: co-immunoprecipitation with luciferase readout (anti-MYC IP)
Settings: HEK293 cells expressing MYC-TNPO1 and PER1PY/Cys_mut-LUCIFERASE; control IgG IP (filled bar) est. 0.75 ± 0.19; n.s.; means ± SD of five; read off a plot

UniProt Q92973, sequence (Q92973 whole entry): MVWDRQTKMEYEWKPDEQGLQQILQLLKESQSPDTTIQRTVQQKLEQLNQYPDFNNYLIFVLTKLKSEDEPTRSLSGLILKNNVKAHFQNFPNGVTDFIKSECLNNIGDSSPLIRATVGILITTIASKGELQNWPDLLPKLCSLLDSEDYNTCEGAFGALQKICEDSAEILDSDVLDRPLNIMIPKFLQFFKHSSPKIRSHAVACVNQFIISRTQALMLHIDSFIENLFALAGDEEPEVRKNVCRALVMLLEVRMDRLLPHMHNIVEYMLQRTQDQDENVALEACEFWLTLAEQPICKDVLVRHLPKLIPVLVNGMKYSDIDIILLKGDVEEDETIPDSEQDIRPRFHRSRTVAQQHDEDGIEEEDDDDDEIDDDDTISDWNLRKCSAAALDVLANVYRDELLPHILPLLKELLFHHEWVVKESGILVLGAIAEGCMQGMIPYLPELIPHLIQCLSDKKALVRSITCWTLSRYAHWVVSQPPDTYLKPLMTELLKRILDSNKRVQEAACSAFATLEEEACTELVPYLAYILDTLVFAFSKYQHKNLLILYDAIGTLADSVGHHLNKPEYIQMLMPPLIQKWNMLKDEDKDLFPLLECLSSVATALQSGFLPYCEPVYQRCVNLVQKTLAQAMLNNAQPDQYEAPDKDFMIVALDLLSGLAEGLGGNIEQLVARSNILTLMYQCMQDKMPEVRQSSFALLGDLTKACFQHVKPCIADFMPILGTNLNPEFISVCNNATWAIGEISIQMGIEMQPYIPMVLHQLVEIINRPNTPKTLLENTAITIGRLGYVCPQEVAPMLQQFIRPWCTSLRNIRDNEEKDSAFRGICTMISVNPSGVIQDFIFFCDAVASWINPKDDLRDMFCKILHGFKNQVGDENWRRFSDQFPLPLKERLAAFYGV

## PER1 fused to full-length firefly luciferase (HEK293) (from UniProt O15534) P883A; Y884A; P935A; Y936A; seven C-terminal Cys to Ala (positions not printed)
  response: 0.75
